Source: patent US20060159695A1 (published 2006)

B1: Fab 007 (Fab, V domains shown)
VH: not shown
VL: DIVMTQSPDSLAVSLGERATINCRASQSVDLFGKSYMHWYQQKPGQPPKLLIYAASNPESGVPDRFSGSGSGTDFTLTISSLQAEDVAVYYCQQIIDDPWTFGQGTKVEIK
B2: Fab 029 (Fab, V domains shown)
VH: not shown
VL: DIVMTQSPDSLAVSLGERATINCRASDSVDYFGVSYMHWYQQKPGQPPKLLIYAASNPESGVPDRFSGSGSGTDFTLTISSLQAEDVAVYYCQQIIDDPWTFGQGTKVEIK
B3: Fab 030 (Fab, V domains shown)
VH: not shown
VL: DIVMTQSPDSLAVSLGERATINCRASQSVDYLGKSYMHWYQQKPGQPPKLLIYAASNPESGVPDRFSGSGSGTDFTLTISSLQAEDVAVYYCQQIIDDPWTFGQGTKVEIK
B4: Fab 013 (Fab, V domains shown)
VH: not shown
VL: DIVMTQSPDSLAVSLGERATINCRASDSVDLFGQSYMHWYQQKPGQPPKLLIYAASNPESGVPDRFSGSGSGTDFTLTISSLQAEDVAVYYCQQIIDDPWTFGQGTKVEIK
B5: Fab 018 (Fab, V domains shown)
VH: not shown
VL: DIVMTQSPDSLAVSLGERATINCRASDSVDLFGQSYMHWYQQKPGQPPKLLIYAASNPESGVPDRFSGSGSGTDFTLTISSLQAEDVAVYYCQQIIEDPWTFGQGTKVEIK
B6: Fab 026 (Fab, V domains shown)
VH: not shown
VL: DIVMTQSPDSLAVSLGERATINCRASDSVDFFGKSYMHWYQQKPGQPPKLLIYAASNPESGVPDRFSGSGSGTDFTLTISSLQAEDVAVYYCQQIIDDPWTFGQGTKVEIK
B7: Fab 009 (Fab, V domains shown)
VH: not shown
VL: DIVMTQSPDSLAVSLGERATINCRASDSVDLFGRSYMHWYQQKPGQPPKLLIYAASNPESGVPDRFSGSGSGTDFTLTISSLQAEDVAVYYCQQIIDDPWTFGQGTKVEIK
B8: Fab 025 (Fab, V domains shown)
VH: not shown
VL: DIVMTQSPDSLAVSLGERATINCRASQSVDLFGKSYMHWYQQKPGQPPKLLIYAASNPESGVPDRFSGSGSGTDFTLTISSLQAEDVAVYYCQQIIDDPWTFGQGTKVEIK
B9: Fab 015 (Fab, V domains shown)
VH: not shown
VL: DIVMTQSPDSLAVSLGERATINCRASQSVDFFGTSYMHWYQQKPGQPPKLLIYAASNPESGVPDRFSGSGSGTDFTLTISSLQAEDVAVYYCQQIIDDPWTFGQGTKVEIK
B10: Fab 032 (Fab, V domains shown)
VH: not shown
VL: DIVMTQSPDSLAVSLGERATINCRASDSVDYFGRSYMHWYQQKPGQPPKLLIYAASNPESGVPDRFSGSGSGTDFTLTISSLQAEDVAVYYCQQIIDDPWTFGQGTKVEIK
B11: Fab 028 (Fab, V domains shown)
VH: not shown
VL: DIVMTQSPDSLAVSLGERATINCRASDSVDLFGVSYMHWYQQKPGQPPKLLIYAASNPESGVPDRFSGSGSGTDFTLTISSLQAEDVAVYYCQQIIEDPWTFGQGTKVEIK
B12: Fab 010 (Fab, V domains shown)
VH: not shown
VL: DIVMTQSPDSLAVSLGERATINCRASDSVDLFGRSYMHWYQQKPGQPPKLLIYAASNPESGVPDRFSGSGSGTDFTLTISSLQAEDVAVYYCQQIIDDPWTFGQGTKVEIK
B13: Fab 014 (Fab, V domains shown)
VH: not shown
VL: DIVMTQSPDSLAVSLGERATINCRASDSVDLFGVSYMHWYQQKPGQPPKLLIYAASNPESGVPDRFSGSGSGTDFTLTISSLQAEDVAVYYCQQIIDDPWTFGQGTKVEIK
B14: Fab 016 (Fab, V domains shown)
VH: not shown
VL: DIVMTQSPDSLAVSLGERATINCRASQSVDYFGVSYMHWYQQKPGQPPKLLIYAASNPESGVPDRFSGSGSGTDFTLTISSLQAEDVAVYYCQQIIDDPWTFGQGTKVEIK
B15: Fab 011 (Fab, V domains shown)
VH: not shown
VL: DIVMTQSPDSLAVSLGERATINCRASDSVDLFGQSYMHWYQQKPGQPPKLLIYAASNPESGVPDRFSGSGSGTDFTLTISSLQAEDVAVYYCQQIIDDPWTFGQGTKVEIK
B16: Fab A10 (Fab, V domains shown)
VH: not shown
VL: DIVMTQSPDSLAVSLGERATINCRASQSVDLLGGSYMHWYQQKPGQPPKLLIYAASNPESGVPDRFSGSGSGTDFTLTISSLQAEDVAVYYCQQIIEDPWTFGQGTKVEIK
B17: Fab 022 (Fab, V domains shown)
VH: not shown
VL: DIVMTQSPDSLAVSLGERATINCRASQSVDLFGTSYMHWYQQKPGQPPKLLIYAASNPESGVPDRFSGSGSGTDFTLTISSLQAEDVAVYYCQQIIDDPWTFGQGTKVEIK
B18: Fab 012 (Fab, V domains shown)
VH: not shown
VL: DIVMTQSPDSLAVSLGERATINCRASQSVDLFGKSYMHWYQQKPGQPPKLLIYAASNPESGVPDRFSGSGSGTDFTLTISSLQAEDVAVYYCQQIIDDPWTFGQGTKVEIK
B19: Fab 008 (Fab, V domains shown)
VH: not shown
VL: DIVMTQSPDSLAVSLGERATINCRASDSVDLFGKSYMHWYQQKPGQPPKLLIYAASNPESGVPDRFSGSGSGTDFTLTISSLQAEDVAVYYCQQIIDDPWTFGQGTKVEIK
B20: Fab 019 (Fab, V domains shown)
VH: not shown
VL: DIVMTQSPDSLAVSLGERATINCRASDSVDLFGQSYMHWYQQKPGQPPKLLIYAASNPESGVPDRFSGSGSGTDFTLTISSLQAEDVAVYYCQQIIDDPWTFGQGTKVEIK
B21: Fab 024 (Fab, V domains shown)
VH: not shown
VL: DIVMTQSPDSLAVSLGERATINCRASDSVDLFGTSYMHWYQQKPGQPPKLLIYAASNPESGVPDRFSGSGSGTDFTLTISSLQAEDVAVYYCQQIIDDPWTFGQGTKVEIK
B22: Fab 017 (Fab, V domains shown)
VH: not shown
VL: DIVMTQSPDSLAVSLGERATINCRASDSVDYFGQSYMHWYQQKPGQPPKLLIYAASNPESGVPDRFSGSGSGTDFTLTISSLQAEDVAVYYCQQIIDDPWTFGQGTKVEIK

Assays:
[1] = molecular target: RSV F protein on human RSV virus (Long strain) (human RSV, Long strain, UniProt P12568 26-574); test: cell-based or functional assay
[2] = molecular target: T1, soluble, extracellular domain of recombinantly expressed RSV F protein (human RSV); test: SPR (Biacore), Fab over captured biotinylated RSV-F;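 on Kd: purified Fabs injected at a single concentration, reference surface subtracted, rate constants from a one-to-one binding model fit, Kd computed as koff divided by kon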;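 on koff: purified Fabs injected at a single concentration, reference surface subtracted, rate constants from a one-to-one binding model fit, Kd computed as koff divided by kon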;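 on kon: purified Fabs injected at a single concentration, reference surface subtracted, rate constants from a one-to-one binding model fit, Kd computed as koff divided by kon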
T1 construct: extracellular domain; also called recombinant RSV F protein; recombinant RSV-F
T1 sequence (P12568 26-109, chain 1 of 2): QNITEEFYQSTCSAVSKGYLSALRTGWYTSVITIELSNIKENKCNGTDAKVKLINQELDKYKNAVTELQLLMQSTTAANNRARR
T1 sequence (P12568 137-524, chain 2 of 2): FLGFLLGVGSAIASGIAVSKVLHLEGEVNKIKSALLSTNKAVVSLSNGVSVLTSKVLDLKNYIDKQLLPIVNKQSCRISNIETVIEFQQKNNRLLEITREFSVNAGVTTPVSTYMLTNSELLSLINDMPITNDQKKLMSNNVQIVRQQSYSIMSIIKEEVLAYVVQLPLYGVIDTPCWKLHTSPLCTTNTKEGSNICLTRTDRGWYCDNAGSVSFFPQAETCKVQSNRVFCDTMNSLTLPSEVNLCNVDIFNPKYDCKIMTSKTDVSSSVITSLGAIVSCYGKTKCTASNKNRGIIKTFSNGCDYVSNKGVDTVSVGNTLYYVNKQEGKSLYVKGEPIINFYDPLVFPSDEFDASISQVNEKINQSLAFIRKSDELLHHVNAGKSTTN

[3] = molecular target: T1, soluble, extracellular domain of …; test: as above; remark: listed apart in the source

Row | Binder | Viral Neut (fold increase over wild-type B23 Fab) [1] | Kd [2] | koff [2] | kon [2] | fold decrease in binding dissociation constant (Kd) relative to A7 [3]
1 | B1 | 5 fold | 58 pM | 0.00019 s⁻¹ | 3.3e+06 M⁻¹ s⁻¹ | 
2 | B2 | > 23 fold | 9 pM | 4e-05 s⁻¹ | 4.58e+06 M⁻¹ s⁻¹ | 
3 | B3 | 18 fold | 73 pM | 7.5e-05 s⁻¹ | 1.03e+06 M⁻¹ s⁻¹ | 
4 | B4 | 13 fold | 58 pM | 0.00021 s⁻¹ | 3.6e+06 M⁻¹ s⁻¹ | 
5 | B5 |  | 55 pM | 8.8e-05 s⁻¹ | 1.6e+06 M⁻¹ s⁻¹ | 
6 | B6 | 20 fold | 28 pM | 6.6e-05 s⁻¹ | 2.39e+06 M⁻¹ s⁻¹ | 
7 | B7 | 19 fold | 28 pM | 7.9e-05 s⁻¹ | 2.8e+06 M⁻¹ s⁻¹ | ~4 fold
8 | B8 | 20 fold | 18 pM | 4.6e-05 s⁻¹ | 2.52e+06 M⁻¹ s⁻¹ | 
9 | B9 | 8 fold | 16 pM | 7.8e-05 s⁻¹ | 5e+06 M⁻¹ s⁻¹ | 
10 | B10 | > 23 fold | 39 pM | 3.6e-05 s⁻¹ | 930000 M⁻¹ s⁻¹ | 
11 | B11 | 18 fold | 20 pM | 8.6e-05 s⁻¹ | 4.2e+06 M⁻¹ s⁻¹ | 
12 | B12 | 18 fold | 47 pM | 0.00018 s⁻¹ | 3.8e+06 M⁻¹ s⁻¹ | 
13 | B13 | < 1 fold | 184 pM | 7e-05 s⁻¹ | 380000 M⁻¹ s⁻¹ | 
14 | B14 | 10 fold | 90 pM | 9e-05 s⁻¹ | 1e+06 M⁻¹ s⁻¹ | 
15 | B15 | > 23 fold | 7 pM | 2.7e-05 s⁻¹ | 4e+06 M⁻¹ s⁻¹ | 
16 | B16 |  | 175 pM | 0.000147 s⁻¹ | 850000 M⁻¹ s⁻¹ | 
17 | B17 | 22 fold | 25 pM | 5.4e-05 s⁻¹ | 2.16e+06 M⁻¹ s⁻¹ | 
18 | B18 | 11 fold | 5 pM | 1.5e-05 s⁻¹ | 3e+06 M⁻¹ s⁻¹ | 
19 | B19 | 15 fold | 133 pM | 0.00028 s⁻¹ | 2.1e+06 M⁻¹ s⁻¹ | 
20 | B20 | > 23 fold | 13.5 pM | 4.5e-05 s⁻¹ | 3.34e+06 M⁻¹ s⁻¹ | 
21 | B21 | > 23 fold | 2 pM | 7e-06 s⁻¹ | 3.14e+06 M⁻¹ s⁻¹ | 
22 | B22 | > 23 fold | 54 pM | 8.1e-05 s⁻¹ | 1.5e+06 M⁻¹ s⁻¹ | 
